According to doi:10.1101/2020.03.14.988345 (bioRxiv, 2020):

Target: His-SP (RBD) (SARS-CoV-2, UniProt P0DTC2 319-541)
Assay: SPR

B1: His-CD147 (receptor)
chain: AAGTVFTTVEDLGSKILLTCSLNDSATEVTGHRWLKGGVVLKEDALPGQKTEFKVDSDDQWGEYSCVFLPEPMGTANIQLHGPPRVKAVKSSEHINEGETAMLVCKSESVPPVTDWAWYKITDSEDKALMNGSESRFFVSSSQGRSELHIENLNMEADPGQYRCNGTSSKGSDQAIITLRVRSHLAAL
  Kd: 185 nM
